To fix the notation:
T1: recombinant human MASP1 active protease (amino acids 297-699, C-terminal His Tag) (human, UniProt P48740 297-699)
T1 sequence: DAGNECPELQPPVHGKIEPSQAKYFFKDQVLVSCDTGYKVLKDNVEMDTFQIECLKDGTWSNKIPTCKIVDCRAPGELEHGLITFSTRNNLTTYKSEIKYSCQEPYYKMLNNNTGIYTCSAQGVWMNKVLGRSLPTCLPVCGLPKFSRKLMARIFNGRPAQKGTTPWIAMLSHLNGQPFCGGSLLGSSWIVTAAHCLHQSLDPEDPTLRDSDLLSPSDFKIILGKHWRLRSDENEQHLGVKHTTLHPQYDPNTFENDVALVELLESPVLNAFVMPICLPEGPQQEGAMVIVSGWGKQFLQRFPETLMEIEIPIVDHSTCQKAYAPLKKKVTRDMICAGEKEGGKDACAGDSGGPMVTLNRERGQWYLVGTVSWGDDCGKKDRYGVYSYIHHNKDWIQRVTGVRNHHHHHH

B1: Example 318: ((N-Me)G)-IC+SRSLPPIC+IPD-OH (HCl- Salt) (peptide)
peptide: [Sar]ICSRSLPPICIPD-OH
modifications: disulfide 3-11; also: HCl salt
B2: Example 331: A-(allo-I)C+SRSLPPIC+IPD-NH2 (peptide)
peptide: A[aIle]CSRSLPPICIPD-NH2
modifications: disulfide 3-11; N-terminus assumed
SMILES: CC[C@@H](C)[C@H](NC(=O)[C@H](C)N)C(=O)N[C@H]1CSSC[C@@H](C(=O)N[C@H](C(=O)N2CCC[C@H]2C(=O)N[C@@H](CC(=O)O)C(N)=O)[C@@H](C)CC)NC(=O)[C@H]([C@@H](C)CC)NC(=O)[C@@H]2CCCN2C(=O)[C@@H]2CCCN2C(=O)[C@H](CC(C)C)NC(=O)[C@H](CO)NC(=O)[C@H](CCCNC(=N)N)NC(=O)[C@H](CO)NC1=O
B3: Example 320: (PEG1(10 atoms))-AIC+SRS-((tBu)A)-PPI-(Pen)+IPD-NH2 (peptide)
peptide: [PEG2]AICSRS[tBuAla]PPI[Pen]IPD-NH2
modifications: disulfide 4-12; N-terminus assumed
SMILES: CC[C@H](C)[C@H](NC(=O)[C@H](C)NC(=O)CCOCCOCCN)C(=O)N[C@H]1CSSC(C)(C)[C@@H](C(=O)N[C@H](C(=O)N2CCC[C@H]2C(=O)N[C@@H](CC(=O)O)C(N)=O)[C@@H](C)CC)NC(=O)[C@H]([C@@H](C)CC)NC(=O)[C@@H]2CCCN2C(=O)[C@@H]2CCCN2C(=O)[C@H](CC(C)(C)C)NC(=O)[C@H](CO)NC(=O)[C@H](CCCNC(=N)N)NC(=O)[C@H](CO)NC1=O
B4: Example 312: ((N-Me)G)-IC+SRSLPPIC+IPd-OH (peptide)
peptide: [Sar]ICSRSLPPICIP[dD]-OH
modifications: disulfide 3-11; N-terminus assumed
SMILES: CC[C@H](C)[C@H](NC(=O)CNC)C(=O)N[C@H]1CSSC[C@@H](C(=O)N[C@H](C(=O)N2CCC[C@H]2C(=O)N[C@H](CC(=O)O)C(=O)O)[C@@H](C)CC)NC(=O)[C@H]([C@@H](C)CC)NC(=O)[C@@H]2CCCN2C(=O)[C@@H]2CCCN2C(=O)[C@H](CC(C)C)NC(=O)[C@H](CO)NC(=O)[C@H](CCCNC(=N)N)NC(=O)[C@H](CO)NC1=O
B5: Example 317: ((N-Me)G)-IC+SRSLPPIC+ID-NH2 (peptide)
peptide: [Sar]ICSRSLPPICID-NH2
modifications: disulfide 3-11; N-terminus assumed
SMILES: CC[C@H](C)[C@H](NC(=O)CNC)C(=O)N[C@H]1CSSC[C@@H](C(=O)N[C@H](C(=O)N[C@@H](CC(=O)O)C(N)=O)[C@@H](C)CC)NC(=O)[C@H]([C@@H](C)CC)NC(=O)[C@@H]2CCCN2C(=O)[C@@H]2CCCN2C(=O)[C@H](CC(C)C)NC(=O)[C@H](CO)NC(=O)[C@H](CCCNC(=N)N)NC(=O)[C@H](CO)NC1=O
B6: Example 316: IC+SRS-((tBu)A)-PPI-(Pen)+IP-NH2 (peptide)
peptide: ICSRS[tBuAla]PPI[Pen]IP-NH2
modifications: disulfide 2-10; N-terminus assumed
SMILES: CC[C@H](C)[C@H](N)C(=O)N[C@H]1CSSC(C)(C)[C@@H](C(=O)N[C@H](C(=O)N2CCC[C@H]2C(N)=O)[C@@H](C)CC)NC(=O)[C@H]([C@@H](C)CC)NC(=O)[C@@H]2CCCN2C(=O)[C@@H]2CCCN2C(=O)[C@H](CC(C)(C)C)NC(=O)[C@H](CO)NC(=O)[C@H](CCCNC(=N)N)NC(=O)[C@H](CO)NC1=O
B7: Example 325: ((N-Me)G)-IC+SRSLPPIC+(Phg)-PD-OH (peptide)
peptide: [Sar]ICSRSLPPIC[Phg]PD-OH
modifications: disulfide 3-11; N-terminus assumed
SMILES: CC[C@H](C)[C@H](NC(=O)CNC)C(=O)N[C@H]1CSSC[C@@H](C(=O)N[C@H](C(=O)N2CCC[C@H]2C(=O)N[C@@H](CC(=O)O)C(=O)O)c2ccccc2)NC(=O)[C@H]([C@@H](C)CC)NC(=O)[C@@H]2CCCN2C(=O)[C@@H]2CCCN2C(=O)[C@H](CC(C)C)NC(=O)[C@H](CO)NC(=O)[C@H](CCCNC(=N)N)NC(=O)[C@H](CO)NC1=O
B8: Example 326: AIC+SRSLP-(3,3-dimethyl-1,3-azasilolidine-5-carboxylic acid)-IC+IPD-NH2 (peptide)
peptide: AICSRSLP[3,3‑dimethyl‑1,3‑azasilolidine‑5‑carboxylic acid]ICIPD-NH2
modifications: disulfide 3-11
B9: Example 321: ((N-Me)G)-IC+SRS-(Cnba)-PPI-(Pen)+IPD-NH2 (peptide)
peptide: [Sar]ICSRS[Abu(4-CN)]PPI[Pen]IPD-NH2
modifications: disulfide 3-11; N-terminus assumed
SMILES: CC[C@H](C)[C@H](NC(=O)CNC)C(=O)N[C@H]1CSSC(C)(C)[C@@H](C(=O)N[C@H](C(=O)N2CCC[C@H]2C(=O)N[C@@H](CC(=O)O)C(N)=O)[C@@H](C)CC)NC(=O)[C@H]([C@@H](C)CC)NC(=O)[C@@H]2CCCN2C(=O)[C@@H]2CCCN2C(=O)[C@H](CCC#N)NC(=O)[C@H](CO)NC(=O)[C@H](CCCNC(=N)N)NC(=O)[C@H](CO)NC1=O
B10: Example 314: AIC+SRS-(AAD)-PP-I-((N-Me)C)+IPD-NH2 (peptide)
peptide: AICSRS[Aad]PPI[NMeC]IPD-NH2
modifications: disulfide 3-11; N-terminus assumed
SMILES: CC[C@H](C)[C@H](NC(=O)[C@H](C)N)C(=O)N[C@H]1CSSC[C@@H](C(=O)N[C@H](C(=O)N2CCC[C@H]2C(=O)N[C@@H](CC(=O)O)C(N)=O)[C@@H](C)CC)N(C)C(=O)[C@H]([C@@H](C)CC)NC(=O)[C@@H]2CCCN2C(=O)[C@@H]2CCCN2C(=O)[C@H](CCCC(=O)O)NC(=O)[C@H](CO)NC(=O)[C@H](CCCNC(=N)N)NC(=O)[C@H](CO)NC1=O
B11: Example 323: GIC+SRSLP-(Oic)-IC+IPD-OH (peptide)
peptide: GICSRSLP[Oic]ICIPD-OH
modifications: disulfide 3-11; N-terminus assumed
SMILES: CC[C@H](C)[C@H](NC(=O)CN)C(=O)N[C@H]1CSSC[C@@H](C(=O)N[C@H](C(=O)N2CCC[C@H]2C(=O)N[C@@H](CC(=O)O)C(=O)O)[C@@H](C)CC)NC(=O)[C@H]([C@@H](C)CC)NC(=O)[C@@H]2C[C@@H]3CCCC[C@@H]3N2C(=O)[C@@H]2CCCN2C(=O)[C@H](CC(C)C)NC(=O)[C@H](CO)NC(=O)[C@H](CCCNC(=N)N)NC(=O)[C@H](CO)NC1=O
B12: Example 319: (Tranexamic)-IC+SRS-((tBu)A)-PPI-((N-Me)C)+IPD-NH2 (peptide)
peptide: [Tranexamic]ICSRS[tBuAla]PPI[NMeC]IPD-NH2
modifications: disulfide 3-11
B13: Example 322: ((tBu)A)-GIC+SRSLP-(Oic)-I-(Pen)+IP-NH2 (peptide)
peptide: [tBuAla]GICSRSLP[Oic]I[Pen]IP-NH2
modifications: disulfide 4-12; N-terminus assumed
SMILES: CC[C@H](C)[C@H](NC(=O)CNC(=O)[C@@H](N)CC(C)(C)C)C(=O)N[C@H]1CSSC(C)(C)[C@@H](C(=O)N[C@H](C(=O)N2CCC[C@H]2C(N)=O)[C@@H](C)CC)NC(=O)[C@H]([C@@H](C)CC)NC(=O)[C@@H]2C[C@@H]3CCCC[C@@H]3N2C(=O)[C@@H]2CCCN2C(=O)[C@H](CC(C)C)NC(=O)[C@H](CO)NC(=O)[C@H](CCCNC(=N)N)NC(=O)[C@H](CO)NC1=O
B14: Example 313: ((N-Me)G)-IC+SRSLPPIC+I-(Abu)-D-OH (peptide)
peptide: [Sar]ICSRSLPPICI[Abu]D-OH
modifications: disulfide 3-11; N-terminus assumed
SMILES: CC[C@H](NC(=O)[C@@H](NC(=O)[C@@H]1CSSC[C@H](NC(=O)[C@@H](NC(=O)CNC)[C@@H](C)CC)C(=O)N[C@@H](CO)C(=O)N[C@@H](CCCNC(=N)N)C(=O)N[C@@H](CO)C(=O)N[C@@H](CC(C)C)C(=O)N2CCC[C@H]2C(=O)N2CCC[C@H]2C(=O)N[C@@H]([C@@H](C)CC)C(=O)N1)[C@@H](C)CC)C(=O)N[C@@H](CC(=O)O)C(=O)O
B15: Example 329: ((N-Me)G)-IC+SRSLPPIC+I-((N-Me)G)-D-OH (peptide)
peptide: [Sar]ICSRSLPPICI[Sar]D-OH
modifications: disulfide 3-11; N-terminus assumed
SMILES: CC[C@H](C)[C@H](NC(=O)CNC)C(=O)N[C@H]1CSSC[C@@H](C(=O)N[C@H](C(=O)N(C)CC(=O)N[C@@H](CC(=O)O)C(=O)O)[C@@H](C)CC)NC(=O)[C@H]([C@@H](C)CC)NC(=O)[C@@H]2CCCN2C(=O)[C@@H]2CCCN2C(=O)[C@H](CC(C)C)NC(=O)[C@H](CO)NC(=O)[C@H](CCCNC(=N)N)NC(=O)[C@H](CO)NC1=O
B16: Example 324: ((N-Me)G)-IC+SRSLP-((1R,3S,5R)-2-Azabicyclo[3.1.0]hexane-3-carboxylic acid)-IC+IPD-OH (peptide)
peptide: [Sar]ICSRSLP[(1R,3S,5R)‑2‑Azabicyclo(3.1.0)hexane‑3‑carboxylic acid]ICIPD-OH
modifications: disulfide 3-11

Bridge positions count the residues as written; N and C are the ends. Square brackets hold non-standard residues; d marks the D form. Ends that are not written are not given here. Oic = O=C(O)[C@@H]1C[C@@H]2CCCC[C@@H]2N1; aIle = CC[C@@H](C)[C@H](N)C(=O)O; tBuAla = CC(C)(C)C[C@H](N)C(=O)O; Abu(4-CN) = N#CCC[C@H](N)C(=O)O; Aad = N[C@@H](CCCC(=O)O)C(=O)O; Pen = CC(C)(S)[C@H](N)C(=O)O; Phg = N[C@H](C(=O)O)c1ccccc1; Tranexamic = tranexamic acid; NMeC = CN[C@@H](CS)C(=O)O; Abu = CC[C@H](N)C(=O)O; PEG2 = NCCOCCOCCC(=O)O; Sar = CNCC(=O)O

For one assay, the target named is T1, recombinant human MASP1 active protease …. Nature of the assay: cell-based or functional assay.
As to B1, the “human MASP1 IC50” value was 22 nM.

Consider B2, for which the “human MASP1 IC50” value came to 24 nM.

Turning to B3, the “human MASP1 IC50” value is 22 nM.

For B4, the “human MASP1 IC50” value turned out to be 21 nM.

For the molecule B5, the “human MASP1 IC50” value was determined as 22 nM.

Consider B6, for which the “human MASP1 IC50” value was 21 nM.

Turning to B7, the “human MASP1 IC50” value was determined as 23 nM.

Turning to B8, the “human MASP1 IC50” value was determined as 23 nM.

For B9, the “human MASP1 IC50” value worked out at 22 nM.

Regarding B10, the “human MASP1 IC50” value is 21 nM.

Regarding B11, the “human MASP1 IC50” value came out at 6.96 nM.

For the molecule B12, the “human MASP1 IC50” value was found to be 22 nM.

In the case of B13, the “human MASP1 IC50” value was determined as 22 nM.

Turning to B14, the “human MASP1 IC50” value stood at 21 nM.

As to B15, the “human MASP1 IC50” value came to 24 nM.

Turning to B16, the “human MASP1 IC50” value worked out at 23 nM.

The next assay deals with recombinant human MASP2 active protease (amino acids 297-686, C-terminal His Tag) (human, UniProt O00187 297-686). In words: cell-based or functional assay.
recombinant human MASP2 active protease (amino acids 297-686, C-terminal His Tag), sequence (O00187 other isoform, or with tags, fused parts or gaps limits assumed): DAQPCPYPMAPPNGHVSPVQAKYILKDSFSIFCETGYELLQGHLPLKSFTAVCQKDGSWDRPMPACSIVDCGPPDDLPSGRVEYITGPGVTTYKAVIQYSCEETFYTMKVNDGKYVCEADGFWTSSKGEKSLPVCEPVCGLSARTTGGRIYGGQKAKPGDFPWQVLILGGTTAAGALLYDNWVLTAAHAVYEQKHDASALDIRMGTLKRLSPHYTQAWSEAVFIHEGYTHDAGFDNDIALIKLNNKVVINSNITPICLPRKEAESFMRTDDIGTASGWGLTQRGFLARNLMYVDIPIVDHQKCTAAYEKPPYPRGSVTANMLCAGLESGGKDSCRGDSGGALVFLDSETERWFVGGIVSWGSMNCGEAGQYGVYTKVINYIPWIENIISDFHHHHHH
With B1, the “human MASP2 IC50” value is 610 nM.

Turning to B2, the “human MASP2 IC50” value is 610 nM.

On to B3, for which the “human MASP2 IC50” value is 190 nM.

With B4, the “human MASP2 IC50” value was determined as 530 nM.

Turning to B5, the “human MASP2 IC50” value was 210 nM.

On to B6, for which the “human MASP2 IC50” value amounted to 660 nM.

Take B7: the “human MASP2 IC50” value came to 450 nM.

On to B8, for which the “human MASP2 IC50” value came to 710 nM.

Turning to B9, the “human MASP2 IC50” value stood at 1800 nM.

In the case of B10, the “human MASP2 IC50” value stood at 260 nM.

For B11, the “human MASP2 IC50” value was 560 nM.

B12: the “human MASP2 IC50” value worked out at 18 nM.

With B13, the “human MASP2 IC50” value was found to be 150 nM.

B14: the “human MASP2 IC50” value is 250 nM.

With B15, the “human MASP2 IC50” value came to 260 nM.

In the case of B16, the “human MASP2 IC50” value is 72 nM.

These data come from patent US20210246166A1 (Bayer, published 2021).
